Test results from patent US20120058906A1 (published 2012).
Positions count from the first letter of the chain named. Each block holds one binder with its values, some of them ahead of it.

Legend:
[1] = biological target: T1, rHuman IGF-1 sR (IGF-1 sR), CF (R&D Systems Cat#391-GR) (human, UniProt P08069 31-932); assay: MSD ECL multi-spot plate, antigen immobilized; Fab 40 nM; blank spot 518
T1 construct: Purchased soluble receptor; also called insulin-like growth factor-1 soluble receptor; IGF-R1

[2] = biological target: T2, rHuman P-Cadherin/Fc Chimera, CF (R&D Systems Cat#861-PC) (human, UniProt P22223 108-654); assay: as above
T2 construct: Purchased Fc chimera; not shown: Fc portion of the purchased chimera

[3] = biological target: T3, rHuman Erythropoietin R/Fc Chimera, CF (R&D Systems Cat#963-ER) (human, UniProt P19235 25-250); assay: as above
T3 construct: Purchased Fc chimera; also called EPO R/Fc; Epo R; not shown: Fc portion of the purchased chimera
T3 sequence: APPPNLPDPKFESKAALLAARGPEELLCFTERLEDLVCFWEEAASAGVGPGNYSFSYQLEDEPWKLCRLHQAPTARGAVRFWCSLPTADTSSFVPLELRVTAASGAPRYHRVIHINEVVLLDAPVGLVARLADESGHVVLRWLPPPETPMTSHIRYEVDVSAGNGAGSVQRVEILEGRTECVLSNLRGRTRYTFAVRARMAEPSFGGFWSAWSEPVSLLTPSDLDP

[4] = biological target: T4, Recombinant Human DLL4 (R&D Systems Cat#1506-D4/CF) (human, UniProt Q9NR61 27-524); assay: as above
T4 construct: Purchased recombinant protein; also called delta-like protein 4

[5] = biological target: T5, rHuman ErbB2/Fc Chimera, CF (R&D Systems Cat#1129-ER) (human, UniProt P04626 23-652); assay: as above
T5 construct: Purchased Fc chimera; also called HER2/neu; not shown: Fc portion of the purchased chimera

[6] = biological target: T6, rHuman EGF R/Fc Chimera, CF (R&D Systems Cat#344-ER) (human, UniProt P00533 25-645); assay: as above
T6 construct: Purchased Fc chimera; not shown: Fc portion of the purchased chimera

[7] = biological target: T7, rHuman HGF R/c-MET/Fc Chimera, CF (R&D Systems Cat#358-MT/CF) (human, UniProt P08581 25-932); assay: as above
T7 construct: Purchased Fc chimera; also called HGF R/Fc; not shown: Fc portion of the purchased chimera

[8] = biological target: T8, rHuman Notch-1/Fc Chimera, CF (R&D Systems Cat#3647-TK) (human, UniProt P46531 19-526); assay: as above
T8 construct: Purchased Fc chimera; not shown: Fc portion of the purchased chimera

[9] = biological target: T9, rHuman CD44/Fc Chimera, CF (R&D Systems Cat#3660-CD) (human, UniProt P16070 21-220); assay: as above
T9 construct: Purchased Fc chimera; not shown: Fc portion of the purchased chimera

[10] = biological target: T10, rHuman Erythropoietin R/Fc Chimera, CF (R&D Systems Cat#963-ER) (human, UniProt P19235 25-250); assay: ECL (MSD Multi-Spot) binding assay, antigen spotted on plate; Fab 6 nM; blank spot 191
T10 construct: Bought Fc chimera; also called EPO R/Fc; Epo R; Fc part of the bought chimera not given
T10 sequence: T3 sequence

[11] = biological target: T11, rHuman ErbB2/Fc Chimera, CF (R&D Systems Cat#1129-ER) (human, UniProt P04626 23-652); assay: as above
T11 construct: Bought Fc chimera; also called HER2/neu; human epidermal growth factor 2 receptor; Fc part of the bought chimera not given

[12] = biological target: T12, rHuman EGF R/Fc Chimera, CF (R&D Systems Cat#344-ER) (human, UniProt P00533 25-645); assay: as above
T12 construct: Bought Fc chimera; also called epidermal growth factor receptor; Fc part of the bought chimera not given

[13] = biological target: T13, rHuman Notch-1/Fc Chimera, CF (R&D Systems Cat#3647-TK) (human, UniProt P46531 19-526); assay: as above
T13 construct: Bought Fc chimera; Fc part of the bought chimera not given

[14] = biological target: T14, rHuman IGF-1 sR (IGF-1 sR), CF (R&D Systems Cat#391-GR) (human, UniProt P08069 31-932); assay: as above
T14 construct: Bought soluble receptor; also called insulin-like growth factor-1 soluble receptor; IGF-R1

[15] = biological target: T10, rHuman Erythropoietin R/Fc Chimera, CF …; assay: ECL (MSD Multi-Spot) binding assay, antigen spotted on plate; Fab 7.5 nM; blank spot 217
[16] = biological target: T13, rHuman Notch-1/Fc Chimera, CF (R&D …); assay: as above
[17] = biological target: T15, rHuman CD44/Fc Chimera, CF (R&D Systems Cat#3660-CD) (human, UniProt P16070 21-220); assay: as above
T15 construct: Bought Fc chimera; Fc part of the bought chimera not given

[18] = biological target: T16, rHuman P-Cadherin/Fc Chimera, CF (R&D Systems Cat#861-PC) (human, UniProt P22223 108-654); assay: as above
T16 construct: Bought Fc chimera; also called CDH3; Fc part of the bought chimera not given
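Further: blank spot per well as comparator with Hit at signal to blank ratio of 4 or more.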

ECL signal [1]: 1270 ECL signal
ECL signal [2]: 744 ECL signal
ECL signal [3]: 979 ECL signal
ECL signal [4]: 35900 ECL signal
ECL signal [5]: 1390 ECL signal
ECL signal [6]: 1150 ECL signal
ECL signal [7]: 1310 ECL signal
ECL signal [8]: 875 ECL signal
ECL signal [9]: 857 ECL signal
B1: Fab VH5-51_IGHD5-18*01>3_IGHJ4*01_G100K & V3-4_IGLJ1*01 (Fab, V domains shown)
VH: EVQLVQSGAEVKKPGESLKISCKGSGYSFTSYWIGWVRQMPGKGLEWMGIIYPGDSDTRYSPSFQGQVTISADKSISTAYLQWSSLKASDTAMYYCARRKYSYGYDYFDYWGQGTLVTVSS
VL: QTVVTQEPSFSVSPGGTVTLTCGLSSGSVSTSYYPSWYQQTPGQAPRTLIYSTNTRSSGVPDRFSGSILGNKAALTITGAQADDESDYYCVLYMGSGISYVFGTGTKVTVL
notes: It was expressed as a Fab: CH1 with tags from Plasmid A and lambda CL from Plasmid E; also called Fab No. 22

ECL signal [10]: 548
ECL signal [11]: 873
ECL signal [12]: 742
ECL signal [13]: 464
ECL signal [14]: 854
B2: Fab VH5-51_IGHD5-18*01>3_IGHJ4*01 & V3-4_IGLJ1*01 (Fab, V domains shown)
VH: B1 VH with K100G
VL: B1 VL
notes: Tested as a Fab made in E. coli; also called IGHV5-51*03

ECL signal [15]: 443
ECL signal [16]: 392
ECL signal [17]: 444
ECL signal [18]: 352
B3: Fab VH6-1_IGHD3-3*01_IGHJ4*01 & V4-3_IGLJ4*01 (Fab, V domains shown)
VH: QVQLQQSGPGLVKPSQTLSLTCAISGDSVSSNSAAWNWIRQSPSRGLEWLGRTYYRSKWYNDYAVSVKSRITINPDTSKNQFSLQLNSVTPEDTAVYYCAREYYDFWSGYYTDYFDYWGQGTLVTVSS
VL: QPVLTQPTSLSASPGASARLTCTLRSGINLGSYRIFWYQQKPESPPRYLLSYYSDSSKHQGSGVPSRFSGSKDASSNAGILVISGLQSEDEADYYCMIWHSSASFVFGGGTQLIIL
notes: Tested as a Fab made in E. coli; also called IGHV6-1*01
